Consider seven molecules from patent US20220372125A1 (ASLAN PHARMACEUTICALS PTE, published 2022).

The target of assay [1] is RON (Macrophage stimulating protein receptor), full length, on cells (human, UniProt Q04912 25-1400). The experiment in a line: cell-based or functional assay.
Assay [2] concerns the target T1, Mammalian expressed extracellular human RON protein (Gly25 to Thr957) with His-tag (human, UniProt Q04912 25-957).
T1 construct: Expressed in ExpiCHO cells, purified on nickel; Position of the His-tag is told inconsistently; Written as one chain; also called RON ECD; RON ECD antigen; not shown: His-tag
T1 sequence: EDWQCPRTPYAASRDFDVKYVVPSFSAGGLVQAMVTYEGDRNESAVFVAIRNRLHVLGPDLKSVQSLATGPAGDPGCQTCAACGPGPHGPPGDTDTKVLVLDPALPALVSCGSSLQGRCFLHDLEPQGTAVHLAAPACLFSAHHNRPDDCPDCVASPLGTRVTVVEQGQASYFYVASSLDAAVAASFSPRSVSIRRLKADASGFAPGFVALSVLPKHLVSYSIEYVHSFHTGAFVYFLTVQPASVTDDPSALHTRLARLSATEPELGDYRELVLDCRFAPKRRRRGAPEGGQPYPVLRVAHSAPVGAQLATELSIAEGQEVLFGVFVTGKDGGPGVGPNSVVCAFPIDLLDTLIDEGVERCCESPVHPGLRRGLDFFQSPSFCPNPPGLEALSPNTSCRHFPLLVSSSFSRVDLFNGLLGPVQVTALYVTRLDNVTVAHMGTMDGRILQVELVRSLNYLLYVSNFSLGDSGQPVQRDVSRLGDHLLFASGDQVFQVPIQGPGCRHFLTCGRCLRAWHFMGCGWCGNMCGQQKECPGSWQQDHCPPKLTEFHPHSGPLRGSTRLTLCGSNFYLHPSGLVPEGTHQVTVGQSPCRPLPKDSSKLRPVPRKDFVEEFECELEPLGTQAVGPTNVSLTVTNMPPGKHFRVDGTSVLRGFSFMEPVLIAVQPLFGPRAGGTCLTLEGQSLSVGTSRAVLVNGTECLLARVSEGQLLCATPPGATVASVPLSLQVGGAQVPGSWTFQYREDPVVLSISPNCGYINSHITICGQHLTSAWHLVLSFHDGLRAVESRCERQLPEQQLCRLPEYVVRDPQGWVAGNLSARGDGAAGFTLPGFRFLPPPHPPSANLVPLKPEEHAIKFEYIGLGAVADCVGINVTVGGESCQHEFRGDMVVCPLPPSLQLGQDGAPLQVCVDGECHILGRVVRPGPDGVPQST
The experiment in a line: KinExA, RON-HIS.

The target in assay [3] is T1, Mammalian expressed extracellular human …. The experiment in a line: KinExA, apparent Kd, column 'Kd by Kinexa (nM)' [continued]. The method, then:
Titration curves were generated using indicated fixed concentrations of extracellular RON antigens measured by calibration free concentration analysis (CFCA). Increasing concentrations of RON antibodies were titrated for measurement of binding. Apparent Kd values were determined from an average of the two curves and plotted in table shown.
(§1) This limitation of the SPR method for highly avid antibodies has been described previously and the use of kinetic exclusion assay has been proposed as a way to overcome this limitation allowing measurements in the sub nanomolar range. We employed the Kinetic Exclusion assay (KinEXa) method to measure the Kd values of all of the new antibodies using a fixed concentration of the recombinant mammalian expressed protein as the target antigen and a twelve-point dilution curve of each antibody. We dropped antibody 9F6, in this assay as it seemed less avid than the other antibodies in preliminary SPR binding assays. The remaining seven antibodies gave exactly accurate results in duplicate analysis (FIG. 6).
(§2) Mammalian produced recombinant extracellular His-tag RON protein was used for affinity measurements. Affinity determinations were carried out in the fixed antigen format. Antibodies were titrated as two-fold dilutions into a fixed concentration of RON antigen. RON protein was detected using mouse monoclonal to 6×His-Tag (Dylight@650, Thermo Fisher). All affinity measurements were carried out using the KinExa 4000 (Sapidyne Instruments).

Assay [4] shares this target. The experiment in a line: KinExA, RON-HIS; 95% Confidence Level 448.10 pM to 200.01 pM. As to the method: as §2
Assay [5] shares this target. Nature of the assay: KinExA, RON-HIS; 95% Confidence Level 2.24 x 106 to 4.45 x 106.
Assay [6] shares this target. Nature of the assay: KinExA, RON-HIS; 95% Confidence Level 167.21 pM to 304.60 pM. As to the method: as §2
For assay [7] the target is unchanged. The experiment in a line: KinExA, RON-HIS; 95% Confidence Level 9.65 x 105 to 1.60 x 106.
Assay [8] shares this target. Nature of the assay: KinExA, RON-HIS; 95% Confidence Level 1.74 nM to 4.11 nM. As to the method:
as §2

Assay [9] shares this target. The experiment in a line: KinExA, RON-HIS; 95% Confidence Level 1.05 x 105 to 1.61 x 105.
The target is the same in assay [10]. The experiment in a line: KinExA, RON-HIS; 95% Confidence Level 8.64 nM to 18.70 nM. The method, then: as §2
Assay [11] has the same target. The experiment in a line: KinExA, RON-HIS; 95% Confidence Level 2.68 x 105 to 3.10 x 105.
The target is the same in assay [12]. Nature of the assay: KinExA, RON-HIS; 95% Confidence Level 92.36 pM to 219.67 pM. The method, then:
as §2

The target is the same in assay [13]. Nature of the assay: KinExA, RON-HIS; 95% Confidence Level 2.30 x 106 to 2.74 x 106.
Assay [14] has the same target. Nature of the assay: KinExA, RON-HIS; 95% Confidence Level 5.94 nM to 11.84 nM. The method, then:
as §2

Assay [15] shares this target. The experiment in a line: KinExA, RON-HIS; 95% Confidence Level 2.55 x 105 to 2.81 x 105.
For assay [16] the target is unchanged. The experiment in a line: KinExA, fixed antigen format, antibody titrated into fixed RON ECD-His.
From the text: as §1, §2

For assay [17] the target is unchanged. The experiment in a line: KinExA, RON-HIS; 95% Confidence Level 14.92 pM to 49.11 pM. As to the method:
as §2

Assay [18] has the same target. The experiment in a line: KinExA, RON-HIS; 95% Confidence Level 2.52 x 106 to 6.93 x 106.

B1: 3G4 (antibody, V domains shown)
VH: EVQLQESGPELVKPGTSVRISCKASGYTFTSYYMHWVKQRPGQGLEWIGYIYPGNVNTKYNEKFKGKATLTADKSSSTAYMQLSSLTSEDSAVYFCARLGYYRYGGAMDYWGQGTAVTVSS
VL: DIVLTQTPAILSVSPGERVSFSCRASQSIGTSIHWYQQRTNGSPRLLIKYASESISGIPSRFSGSGSGTDFTLRINSVESEDLADYYCQQSDSWPTTFGGGTKLEIKR
notes: Mouse monoclonal antibody from a hybridoma (supernatant or purified); kappa light chain; also called Antibody 3G4; anti-RON antibody 3G4
Turning to B1, the “IC50 of inhibition of MSP induced ERK phosphorylation (AlphaLISA SureFire p-ERK, T47D cells)” value in assay [1] came to 68 nM. In assay [2], the koff is 0.000968 s⁻¹. Moreover, the Kd in [3] was 0.3 nM; in assay [4], 0.305 nM. In assay [5], the kon turned out to be 3.18e+06 M⁻¹ s⁻¹.

B2: 7H11 (antibody, V domains shown)
VH: EVKLEQSGPELVKPGASVKISCKASGYTFTDYNMHWVRQPPGQSLEWIGFIYPYNGNSGYNPNFKTKATLTMDISSSTAYMEVRNLTSEDSATYFCASLYYLGYFDVWGAGTTVTVSS
VL: DIVLTQSPVSLAVSLGQRATISCRASKSVSTSAYNFMHWYQQKPGQPPKLLIYLASNLESGVPARLSGSGSGTDFTLNIHPVEEEDAATYYCQHSRELPYTFGGGTKLEIKR
notes: Mouse monoclonal antibody from a hybridoma; kappa light chain; also called Antibody 7H11; anti-RON antibody 7H11
B2 registered a koff in assay [2] of 0.000286 s⁻¹. Besides, the Kd in assay [3] and in assay [6] was 0.23 nM in each case. In assay [7], this molecule showed a kon of 1.25e+06 M⁻¹ s⁻¹.

B3: 9F2 (antibody, V domains shown)
VH: QVKLQQSGPGLVAPSQSLSITCTVSGFSLTSYGVHWVRQPPGKGLEWLGVIWAGGTTNYNSALMSRLSISKDNSKSQVFLKMNSLQTDDTAMYYCASYDYDGYFDVWGAGTTVTVSS
VL: DIVLTQTTAIMSASPGEKVTMTCSASSSVSYIHWYQQKSSTSPKLWIYDTSKLASGVPGRFSGSGSGNSYSLTISSMEAEDVATYYCFQGNKYPLTFGAGTKLELK
notes: Mouse monoclonal antibody from a hybridoma; kappa light chain; also called Antibody 9F2; anti-RON antibody 9F2
With B3, in assay [2], the koff came out at 0.00353 s⁻¹. For the same molecule, the values for the Kd in assay [8] and in assay [3] were 2.74 nM and 2.7 nM, respectively. The molecule also showed a kon in assay [9] of 129000 M⁻¹ s⁻¹.

B4: 3F6 (antibody, V domains shown)
VH: EVKLEESGPGLVKPSQSLSLTCSVTGYSITSGYYWNWIRQFPGNKLEWMGFMSYDGSNNYNPSLKNRISITRDTSKNQFFLKLNSVTSEDTATYYCSRALAYYGNFDYWGQGTTLTVSS
VL: DIVLTQTPSSLSASLGDRVTISCSASQDISNYLNWYQQKPDGIVKLLIYYTSSLHSGVPSRFSGSGSGTDFSLTISNLEPEDIATYYCQQYNKLPWTFGGGTKLEIK
notes: Mouse monoclonal antibody from a hybridoma; kappa light chain; also called anti-RON antibody 3F6
For the molecule B4, the Kd in assay [10] and in assay [3] was 13.4 nM in each case. In assay [11], the kon was 270000 M⁻¹ s⁻¹.

B5: 3F8 (antibody, V domains shown)
VH: EVKLQESGGGLVQPGRSLKLSCVASGFTFSSFWMHWVRQSPEKGLEWVAEIRLKSNNYATHYAESVKGRFTISRDDSKSSVHLQMNNLRTEDTGIYYCIPPYYYTVDYWGQGTSVTVSS
VL: DIVLTQTPKVMSTSVGDRVSVTCKASQNVNTNVAWYQQKPGQSPKALIYSASSRYSGVPDRFTGSGSGTDFTLTISNVQSEDLADYFCQQYNTYPLTFAAGTKLELK
notes: Mouse monoclonal antibody from a hybridoma; kappa light chain; also called Antibody 3F8; anti-RON antibody 3F8
In turn, B5 came in with a koff in [2] of 0.000358 s⁻¹. Also, the Kd amounted to 0.146 nM in assay [12] and 0.15 nM in assay [3]. The same molecule gave a kon in assay [13] of 2.44e+06 M⁻¹ s⁻¹.

B6: 6A9 (antibody, V domains shown)
VH: EVKLEESGPGLLKPSQSLSLTCTVTGSSITSDYAWNWIRQFPGNKLEWMGYIGYSVGTSHNPSLKGRISITRDTSKNQFFLHLNSVTTEDTAIYYCARRPLYFYYAMDFWGQGTSVTVSS
VL: DIVLTQSPSSLSASLGDRVTITCRASQDISKYLNWYQQKPDGTVKLLIYYTSTLHSGVPSRFSGSGSGTDFSLTITNLEQEDIATYFCQQGNTLPRTFGGGTKLEIK
notes: Mouse monoclonal antibody from a hybridoma; kappa light chain; also called Antibody 6A9; anti-RON antibody 6A9
B6 came in with a koff in assay [2] of 0.00228 s⁻¹. Also, the Kd in [14] was found to be 8.57 nM; in [3] it was 8.6 nM. This molecule also returned a kon in assay [15] of 266000 M⁻¹ s⁻¹.

B7: 10G1 (antibody, V domains shown)
VH: EVKLEQSGGGLVQPGGSRKLSCAASGFTFSSFGMHWVRQAPEKGLEWVAYISGGSGTFYYADTVKGRFTISRDNPKNTLFLQMTSLRSEDTAIYYCARSTTVLDYWGQGTTLTVSS
VL: DIVLTQTPSSMYAFLGERVTIICKASQDINNYLNWVQQKPGKAPKTLIYHADRLADGVPSRFSGSGSGQDYSLTISSLEYEDMGIYYCLQYDDFPPFTFGSGTKLEIK
notes: Mouse monoclonal antibody from a hybridoma; kappa light chain; also called Antibody 10G1; anti-RON antibody 10G1
B7: the “IC50 of inhibition of MSP induced ERK phosphorylation (AlphaLISA SureFire p-ERK, T47D cells)” value in assay [1] was 2.8 nM. Besides, the koff in [2] is 0.000121 s⁻¹. The Kd amounted to 0.029 nM in [16] and 0.0294 nM in assay [17]. Further, the kon in assay [18] stood at 4.12e+06 M⁻¹ s⁻¹.
